{
  "source": "patent EP4748858A1",
  "about": "(Nanjing Probio Biotech Co., Ltd., dated 2026)",
  "binders": {"B1": {"name": "AHP19485-VHH1 CAR (other)", "chain": "EVQLVESGGGLVQPGGSLRLSCAASERIFSIHAMGWYRQAPGKQRELVSSITIGGSTHYADSVKGRFTISRDNSKNTLYLQMNSLRAEDTAVYYCNSMLLAGTVGGSWGQGTLVTVSSGGGSGGGSGGGSGGGSEVQLVESGGGLVQPGGSLRLSCAASERIFSIHAMGWYRQAPGKQRELVSSITIGGSTHYADSVKGRFTISRDNSKNTLYLQMNSLRAEDTAVYYCNSMLLAGTVGGSWGQGTLVTVSSAAADYKDDDDKIEVMYPPPYLDNEKSNGTIIHVKGKHLCPSPLFPGPSKPFWVLVVVGGVLACYSLLVTVAFIIFWVRSKRSRLLHSDYMNMTPRRPGPTRKHYQPYAPPRDFAAYRSRVKFSRSADAPAYQQGQNQLYNELNLGRREEYDVLDKRRGRDPEMGGKPRRKNPQEGLYNELQKDKMAEAYSEIGMKGERRRGKGHDGLYQGLSTATKDTYDALHMQALPPR"}, "B2": {"name": "AHP19509-VHH1 CAR (other)", "chain": "EVQLVESGGGLVQPGGSLRLSCAASGGTFNRYTMGWFRQAPGKEREFVSAISWSGGSTDYADSVKGRFTISRDNSKNTLYLQMNSLRAEDTAVYYCDTDRMPYRPVAAGILSWEANWGQGTLVTVSSGGGSGGGSGGGSGGGSEVQLVESGGGLVQPGGSLRLSCAASGGTFNRYTMGWFRQAPGKEREFVSAISWSGGSTDYADSVKGRFTISRDNSKNTLYLQMNSLRAEDTAVYYCDTDRMPYRPVAAGILSWEANWGQGTLVTVSSAAADYKDDDDKIEVMYPPPYLDNEKSNGTIIHVKGKHLCPSPLFPGPSKPFWVLVVVGGVLACYSLLVTVAFIIFWVRSKRSRLLHSDYMNMTPRRPGPTRKHYQPYAPPRDFAAYRSRVKFSRSADAPAYQQGQNQLYNELNLGRREEYDVLDKRRGRDPEMGGKPRRKNPQEGLYNELQKDKMAEAYSEIGMKGERRRGKGHDGLYQGLSTATKDTYDALHMQALPPR"}, "B3": {"name": "AHP19481 (Fc fusion)", "chain": "AVQLVDSGGGLVQPGGSLRLSCAASGFTFSGFAMSWYRQAPGKERELVATISRFGESSNYEDSVKGRFTISRDNAKDTGYLQMNSLKPEDTAVYYCNAEAPAGSLWYGNNYWGQGTQVTVSS", "notes": "Alpaca VHH expressed as fusion to human IgG1 Fc; not shown: human IgG1 Fc of expression vector pcDNA3.4-Fc (HuIgG1)"}, "B4": {"name": "AHP19472 (Fc fusion)", "chain": "B3 chain with R19G, A33D, E46M, S52T, E56G, K76R, G79V, V93M, N97H, Y107F", "notes": "Alpaca VHH expressed as fusion to human IgG1 Fc in HEK293-6E; not shown: human IgG1 Fc of expression vector pcDNA3.4-Fc (HuIgG1)"}, "B5": {"name": "AHP19490 (Fc fusion)", "chain": "B3 chain with A1Q, D6E, A33D, E56G, A75V, G79V, N97Y, E99L, Y107H, N109D", "notes": "as for B3"}, "B6": {"name": "AHP19495 (Fc fusion)", "chain": "AVQLVESGGGLVQPGGSLRLSCAASGFTASRDVMSWYRQPPGKERELVASIFSAGSKETYAESVKGRFTISIDNVKNTVNLQMDNLKPEDTAVYYCHRWPGYWGQGTQVTVSS", "notes": "as for B3"}, "B7": {"name": "AHP19508 (Fc fusion)", "chain": "AVQLVDSGGGLVQPGGSLRLSCAASGDFARLYEMAWYRQTPGQQREVVAQITVGGSTKYADSVKGRFTISRDSAKNTVYLQMNSLRPEDTAVYYCHAWPALWGQGTQVTVSS", "notes": "as for B3"}, "B8": {"name": "AHP19509 (Fc fusion)", "chain": "QVKLEESGGGLVQAGGSLRLSCAASGGTFNRYTMGWFRQAPGKEREFVAAISWSGGSTDYADSVKGRFTISRDNTKNTVYLQMNSLKPEDAAVYYCDTDRMPYRPVAAGILSWEANWGQGTQVTVSS", "notes": "Alpaca VHH expressed as fusion to human IgG1 Fc; also called AHP19509-VHH; not shown: human IgG1 Fc of expression vector pcDNA3.4-Fc (HuIgG1)"}, "B9": {"name": "AHP19511 (Fc fusion)", "chain": "AVQLVESGGGLVQPGGSLRLSCAASGFTFSNAVIGWYRQAPGKQRELVASITPGGRTTYPDSVKGRFIISRDNAKNTVYLEMNSLKLEDTAVYYCNDFRGLGGYWGQGTQVTVSS", "notes": "as for B3"}, "B10": {"name": "AHP19483 (Fc fusion)", "chain": "AVQLVDSGGGLVQAGGSLTLSCAASGRTFSRYTMGWFRQAPGKERELVASISWSGGSTDYADSVKDRFTISRDNTKNTVYLQMNGLKPEDTAVYYCNTDRMPYRPVVGGILSWEPYWGQGTQVTVTP", "notes": "as for B3"}, "B11": {"name": "AHP19484 (Fc fusion)", "chain": "QVKLEESGGGLVQPGGSLRLSCVASGSSFHFAFMGWYRQAPGKQRELVADISPGNSTNYADPVKGRFVISRDNAKNTVYLQMNSLKPEDTAVYFCRDLRSWGAWGRGTQVTVSS", "notes": "Alpaca VHH expressed as fusion to human IgG1 Fc; also called AHP19484-VHH; not shown: human IgG1 Fc of expression vector pcDNA3.4-Fc (HuIgG1)"}, "B12": {"name": "AHP19485 (Fc fusion)", "chain": "EVQLVESGGGLVQPGGSLRLSCASSERIFSIHAMGWYRQAPGKQRELVASITIGGSTHYADSVKGRFTISRDNAKNTVYLHMNSLKPEDTAVYYCNSMLLAGTVGGSWGQGTQVTVSS", "notes": "Alpaca VHH expressed as fusion to human IgG1 Fc; also called AHP19485-VHH; not shown: human IgG1 Fc of expression vector pcDNA3.4-Fc (HuIgG1)"}, "B13": {"name": "AHP19487 (Fc fusion)", "chain": "DVQLVESGGGLVQPGGSLRLSCAFPGSAFSFYFMGWYRQAPGKQRELVGDITPGGTANYADSVKGRFTISRDSAKNTVYLQMNSLKPEDTAVYYCNADRRVTIRPDGYWGQGTQVTVSS", "notes": "as for B3"}, "B14": {"name": "AHP19494 (Fc fusion)", "chain": "QVKLEESGGGLVQAGGSLRLSCAAPGRTLSASIKAWFRQAPGKDREFAAAIRWSGDSTYYADSVKGRFTISRDNAKNTVDLQMNSLKPEDTAVYYCNAGGLLSNGYQPGSSWGQGTQVTVSS", "notes": "as for B3"}},
  "note": "Residue numbers refer to the chain shown, from its start.",
  "data": [
    {"target": "T1, human CD7 expressed on cells (human, UniProt P09564 26-240)", "T1 sequence (looked up)": "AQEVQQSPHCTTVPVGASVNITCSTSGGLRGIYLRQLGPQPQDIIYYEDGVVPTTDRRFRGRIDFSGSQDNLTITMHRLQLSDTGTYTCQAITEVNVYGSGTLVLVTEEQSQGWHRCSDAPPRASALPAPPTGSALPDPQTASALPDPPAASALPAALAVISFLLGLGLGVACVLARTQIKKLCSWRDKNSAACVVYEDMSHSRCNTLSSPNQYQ", "experiment": "cell-based or functional assay", "units": {"% Cytotoxicity of CAR-T cells against Jurkat/Luc, E/T = 1 : 1": "%", "% Cytotoxicity of CAR-T cells against Jurkat/Luc, E/T = 5 : 1": "%", "% Cytotoxicity of CAR-T cells against Jurkat/Luc, E/T = 20 : 1": "%"}, "values": [
      {"binder": "B1", "% Cytotoxicity of CAR-T cells against Jurkat/Luc, E/T = 1 : 1": 29.7, "% Cytotoxicity of CAR-T cells against Jurkat/Luc, E/T = 5 : 1": 86, "% Cytotoxicity of CAR-T cells against Jurkat/Luc, E/T = 20 : 1": 99.4},
      {"binder": "B2", "% Cytotoxicity of CAR-T cells against Jurkat/Luc, E/T = 1 : 1": 62.4, "% Cytotoxicity of CAR-T cells against Jurkat/Luc, E/T = 5 : 1": 93, "% Cytotoxicity of CAR-T cells against Jurkat/Luc, E/T = 20 : 1": 99.6}
    ]},
    {"target": "T1, human CD7 expressed on cells", "experiment": "cell-based or functional assay", "remark": "another data set of the same source", "units": {"% Cytotoxicity of CAR-T cells against CCRF-CEM/Luc, E/T = 1 : 1": "%", "% Cytotoxicity of CAR-T cells against CCRF-CEM/Luc, E/T = 5 : 1": "%", "% Cytotoxicity of CAR-T cells against CCRF-CEM/Luc, E/T = 20 : 1": "%"}, "values": [
      {"binder": "B1", "% Cytotoxicity of CAR-T cells against CCRF-CEM/Luc, E/T = 1 : 1": 57.4, "% Cytotoxicity of CAR-T cells against CCRF-CEM/Luc, E/T = 5 : 1": 61.2, "% Cytotoxicity of CAR-T cells against CCRF-CEM/Luc, E/T = 20 : 1": 78.2},
      {"binder": "B2", "% Cytotoxicity of CAR-T cells against CCRF-CEM/Luc, E/T = 1 : 1": 74.8, "% Cytotoxicity of CAR-T cells against CCRF-CEM/Luc, E/T = 5 : 1": 60.2, "% Cytotoxicity of CAR-T cells against CCRF-CEM/Luc, E/T = 20 : 1": 84.6}
    ]},
    {"target": "T2, mouse CD7 (ACROBiosystems, CD7-M52H3) (mouse, UniProt P50283 24-150)", "T2 construct": "Bought recombinant protein; also called Mouse CD7 protein", "T2 sequence (looked up)": "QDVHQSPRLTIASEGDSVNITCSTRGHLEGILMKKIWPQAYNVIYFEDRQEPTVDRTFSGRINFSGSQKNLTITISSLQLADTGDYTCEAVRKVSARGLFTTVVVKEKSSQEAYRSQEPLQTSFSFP", "experiment": "indirect ELISA, plate coated with 1 µg/ml mouse CD7", "values": [
      {"binder": "B3", "binding result": "no binding (tested: 8 µg/ml (about 100 nM))"},
      {"binder": "B4", "binding result": "no binding (tested: 8 µg/ml (about 100 nM))"},
      {"binder": "B5", "binding result": "no binding (tested: 8 µg/ml (about 100 nM))"},
      {"binder": "B6", "binding result": "no binding (tested: 8 µg/ml (about 100 nM))"},
      {"binder": "B7", "binding result": "no binding (tested: 8 µg/ml (about 100 nM))"},
      {"binder": "B8", "binding result": "no binding (tested: 8 µg/ml (about 100 nM))"},
      {"binder": "B9", "binding result": "no binding (tested: 8 µg/ml (about 100 nM))"},
      {"binder": "B10", "binding result": "no binding (tested: 8 µg/ml (about 100 nM))"},
      {"binder": "B11", "binding result": "no binding (tested: 8 µg/ml (about 100 nM))"},
      {"binder": "B12", "binding result": "no binding (tested: 8 µg/ml (about 100 nM))"},
      {"binder": "B13", "binding result": "no binding (tested: 8 µg/ml (about 100 nM))"},
      {"binder": "B14", "binding result": "no binding (tested: 8 µg/ml (about 100 nM))"}
    ]},
    {"target": "T3, recombinant protein of the human CD7 extracellular domain, CD7-His (human, UniProt P09564 26-180)", "T3 construct": "range 25-645; also called human CD7-His protein; recombinant human CD7; not shown: His protein tag", "T3 sequence (looked up)": "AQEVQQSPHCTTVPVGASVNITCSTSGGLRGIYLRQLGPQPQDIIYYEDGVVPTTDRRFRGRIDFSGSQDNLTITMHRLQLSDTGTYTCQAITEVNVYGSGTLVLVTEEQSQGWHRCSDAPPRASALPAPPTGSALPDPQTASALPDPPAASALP", "experiment": "SPR Biacore T200, antibody captured via Fc, human CD7 as analyte", "units": {"Kd": "nM", "koff": "s⁻¹", "kon": "M⁻¹ s⁻¹"}, "values": [
      {"binder": "B8", "Kd": 0.0765, "koff": "2.3e-05", "kon": 301000},
      {"binder": "B11", "Kd": 0.12, "koff": "6.03e-05", "kon": 502000},
      {"binder": "B12", "Kd": 0.289, "koff": "7.73e-05", "kon": 268000}
    ]},
    {"target": "T3, recombinant protein of the human CD7 …", "experiment": "indirect ELISA, plate coated with 1 µg/ml human CD7, anti-human IgG Fc-HRP", "units": {"EC50": "nM"}, "values": [
      {"binder": "B3", "EC50": 0.238},
      {"binder": "B4", "EC50": 0.179},
      {"binder": "B5", "EC50": 0.268},
      {"binder": "B6", "EC50": 0.158},
      {"binder": "B7", "EC50": 0.2},
      {"binder": "B8", "EC50": 0.209},
      {"binder": "B9", "EC50": 0.166},
      {"binder": "B10", "EC50": 0.231},
      {"binder": "B11", "EC50": 0.278},
      {"binder": "B12", "EC50": 0.168},
      {"binder": "B13", "EC50": 0.173},
      {"binder": "B14", "EC50": 1.47}
    ]},
    {"target": "T4, monkey CD7 (Sino Biological, 90993-H08H) (monkey)", "T4 construct": "Bought recombinant protein; also called Monkey CD7 protein", "experiment": "indirect ELISA, plate coated with 1 µg/ml monkey CD7, anti-human IgG Fc-HRP", "units": {"EC50": "nM"}, "values": [
      {"binder": "B11", "EC50": 7.03}
    ]}
  ]
}
